The labels stand for the following.
B1: target 1 G5U,G17A (mixed)
RNA 1: CACCCGUGCAAAAAUGCAGGGGUCUAAAACUGAGCGGAUAACCUCUCUAUGG
RNA 2: GGGAAUGGAUCCACAUCUACGAAUUCGUACCAUAAAGAGGUUAUCCUCUCACCGAGAUCGGAAGAGCACACGU
B2: target 1 U8G,A14G (mixed)
RNA 1: CACCCGUGCAAAAAUGCAGGGGUCUAAAACUGAGCGGAUAACCUCUCUAUGG
RNA 2: GGGAAUGGAUCCACAUCUACGAAUUCGUACCAUAGAGGGGUUAGCCGCUCACCGAGAUCGGAAGAGCACACGU
B3: target 1 insG 3' of 4,insG 3' of 1 (mixed)
RNA 1: CACCCGUGCAAAAAUGCAGGGGUCUAAAACUGAGCGGAUAACCUCUCUAUGG
RNA 2: GGGAAUGGAUCCACAUCUACGAAUUCGUACCAUAGAGAGGUUAUCCGCGUCAGCCGAGAUCGGAAGAGCACACGU
B4: target 2 MT 5'PFS CUG 3'PFS AUU (mixed)
RNA 1: CACCCGUGCAAAAUUGCAGGGGUCUAAAACCUUCUCCAAAUUGUUUCAUCCU
RNA 2: GGGAAUGGAUCCACAUCUACGAAUUCCUGAGGAUGAAACAAUUUGGAGAAGAUUAGAUCGGAAGAGCACACGU
B5: target 2 MT 5'PFS GGU 3'PFS CGC (mixed)
RNA 1: CACCCGUGCAAAAUUGCAGGGGUCUAAAACCUUCUCCAAAUUGUUUCAUCCU
RNA 2: GGGAAUGGAUCCACAUCUACGAAUUCGGUAGGAUGAAACAAUUUGGAGAAGCGCAGAUCGGAAGAGCACACGU
B6: target 2 MT 5'PFS GUC 3'PFS UGA (mixed)
RNA 1: CACCCGUGCAAAAUUGCAGGGGUCUAAAACCUUCUCCAAAUUGUUUCAUCCU
RNA 2: GGGAAUGGAUCCACAUCUACGAAUUCGUCAGGAUGAAACAAUUUGGAGAAGUGAAGAUCGGAAGAGCACACGU
B7: target 2 MT 5'PFS AAC 3'PFS UAU (mixed)
RNA 1: CACCCGUGCAAAAUUGCAGGGGUCUAAAACCUUCUCCAAAUUGUUUCAUCCU
RNA 2: GGGAAUGGAUCCACAUCUACGAAUUCAACAGGAUGAAACAAUUUGGAGAAGUAUAGAUCGGAAGAGCACACGU
B8: target 2 MT 5'PFS GGU 3'PFS CGG (mixed)
RNA 1: CACCCGUGCAAAAUUGCAGGGGUCUAAAACCUUCUCCAAAUUGUUUCAUCCU
RNA 2: GGGAAUGGAUCCACAUCUACGAAUUCGGUAGGAUGAAACAAUUUGGAGAAGCGGAGAUCGGAAGAGCACACGU
B9: target 2 MT 5'PFS GGA 3'PFS CCG (mixed)
RNA 1: CACCCGUGCAAAAUUGCAGGGGUCUAAAACCUUCUCCAAAUUGUUUCAUCCU
RNA 2: GGGAAUGGAUCCACAUCUACGAAUUCGGAAGGAUGAAACAAUUUGGAGAAGCCGAGAUCGGAAGAGCACACGU
B10: target 2 MT 5'PFS AAC 3'PFS ACC (mixed)
RNA 1: CACCCGUGCAAAAUUGCAGGGGUCUAAAACCUUCUCCAAAUUGUUUCAUCCU
RNA 2: GGGAAUGGAUCCACAUCUACGAAUUCAACAGGAUGAAACAAUUUGGAGAAGACCAGAUCGGAAGAGCACACGU
B11: target 2 MT 5'PFS UAA 3'PFS UGC (mixed)
RNA 1: CACCCGUGCAAAAUUGCAGGGGUCUAAAACCUUCUCCAAAUUGUUUCAUCCU
RNA 2: GGGAAUGGAUCCACAUCUACGAAUUCUAAAGGAUGAAACAAUUUGGAGAAGUGCAGAUCGGAAGAGCACACGU
B12: target 2 MT 5'PFS AAC 3'PFS UAG (mixed)
RNA 1: CACCCGUGCAAAAUUGCAGGGGUCUAAAACCUUCUCCAAAUUGUUUCAUCCU
RNA 2: GGGAAUGGAUCCACAUCUACGAAUUCAACAGGAUGAAACAAUUUGGAGAAGUAGAGAUCGGAAGAGCACACGU
B13: target 2 MT 5'PFS GGU 3'PFS CGU (mixed)
RNA 1: CACCCGUGCAAAAUUGCAGGGGUCUAAAACCUUCUCCAAAUUGUUUCAUCCU
RNA 2: GGGAAUGGAUCCACAUCUACGAAUUCGGUAGGAUGAAACAAUUUGGAGAAGCGUAGAUCGGAAGAGCACACGU
B14: target 2 MT 5'PFS GGC 3'PFS UUC (mixed)
RNA 1: CACCCGUGCAAAAUUGCAGGGGUCUAAAACCUUCUCCAAAUUGUUUCAUCCU
RNA 2: GGGAAUGGAUCCACAUCUACGAAUUCGGCAGGAUGAAACAAUUUGGAGAAGUUCAGAUCGGAAGAGCACACGU
B15: target 2 MT 5'PFS GGC 3'PFS UUA (mixed)
RNA 1: CACCCGUGCAAAAUUGCAGGGGUCUAAAACCUUCUCCAAAUUGUUUCAUCCU
RNA 2: GGGAAUGGAUCCACAUCUACGAAUUCGGCAGGAUGAAACAAUUUGGAGAAGUUAAGAUCGGAAGAGCACACGU
B16: target 2 MT 5'PFS GGU 3'PFS CGA (mixed)
RNA 1: CACCCGUGCAAAAUUGCAGGGGUCUAAAACCUUCUCCAAAUUGUUUCAUCCU
RNA 2: GGGAAUGGAUCCACAUCUACGAAUUCGGUAGGAUGAAACAAUUUGGAGAAGCGAAGAUCGGAAGAGCACACGU
B17: target 2 MT 5'PFS AAC 3'PFS UAA (mixed)
RNA 1: CACCCGUGCAAAAUUGCAGGGGUCUAAAACCUUCUCCAAAUUGUUUCAUCCU
RNA 2: GGGAAUGGAUCCACAUCUACGAAUUCAACAGGAUGAAACAAUUUGGAGAAGUAAAGAUCGGAAGAGCACACGU
B18: target 2 MT 5'PFS AAC 3'PFS UAC (mixed)
RNA 1: CACCCGUGCAAAAUUGCAGGGGUCUAAAACCUUCUCCAAAUUGUUUCAUCCU
RNA 2: GGGAAUGGAUCCACAUCUACGAAUUCAACAGGAUGAAACAAUUUGGAGAAGUACAGAUCGGAAGAGCACACGU
B19: target 2 MT 5'PFS UAG 3'PFS CGC (mixed)
RNA 1: CACCCGUGCAAAAUUGCAGGGGUCUAAAACCUUCUCCAAAUUGUUUCAUCCU
RNA 2: GGGAAUGGAUCCACAUCUACGAAUUCUAGAGGAUGAAACAAUUUGGAGAAGCGCAGAUCGGAAGAGCACACGU
B20: target 2 MT 5'PFS AAC 3'PFS ACG (mixed)
RNA 1: CACCCGUGCAAAAUUGCAGGGGUCUAAAACCUUCUCCAAAUUGUUUCAUCCU
RNA 2: GGGAAUGGAUCCACAUCUACGAAUUCAACAGGAUGAAACAAUUUGGAGAAGACGAGAUCGGAAGAGCACACGU
B21: target 2 MT 5'PFS GGA 3'PFS CCA (mixed)
RNA 1: CACCCGUGCAAAAUUGCAGGGGUCUAAAACCUUCUCCAAAUUGUUUCAUCCU
RNA 2: GGGAAUGGAUCCACAUCUACGAAUUCGGAAGGAUGAAACAAUUUGGAGAAGCCAAGAUCGGAAGAGCACACGU
B22: target 2 MT 5'PFS CUA 3'PFS UAG (mixed)
RNA 1: CACCCGUGCAAAAUUGCAGGGGUCUAAAACCUUCUCCAAAUUGUUUCAUCCU
RNA 2: GGGAAUGGAUCCACAUCUACGAAUUCCUAAGGAUGAAACAAUUUGGAGAAGUAGAGAUCGGAAGAGCACACGU
B23: target 2 MT 5'PFS GAC 3'PFS ACU (mixed)
RNA 1: CACCCGUGCAAAAUUGCAGGGGUCUAAAACCUUCUCCAAAUUGUUUCAUCCU
RNA 2: GGGAAUGGAUCCACAUCUACGAAUUCGACAGGAUGAAACAAUUUGGAGAAGACUAGAUCGGAAGAGCACACGU
B24: target 2 MT 5'PFS ACA 3'PFS AAU (mixed)
RNA 1: CACCCGUGCAAAAUUGCAGGGGUCUAAAACCUUCUCCAAAUUGUUUCAUCCU
RNA 2: GGGAAUGGAUCCACAUCUACGAAUUCACAAGGAUGAAACAAUUUGGAGAAGAAUAGAUCGGAAGAGCACACGU
B25: target 2 MT 5'PFS UAA 3'PFS UGU (mixed)
RNA 1: CACCCGUGCAAAAUUGCAGGGGUCUAAAACCUUCUCCAAAUUGUUUCAUCCU
RNA 2: GGGAAUGGAUCCACAUCUACGAAUUCUAAAGGAUGAAACAAUUUGGAGAAGUGUAGAUCGGAAGAGCACACGU
B26: target 2 MT 5'PFS AUU 3'PFS CAA (mixed)
RNA 1: CACCCGUGCAAAAUUGCAGGGGUCUAAAACCUUCUCCAAAUUGUUUCAUCCU
RNA 2: GGGAAUGGAUCCACAUCUACGAAUUCAUUAGGAUGAAACAAUUUGGAGAAGCAAAGAUCGGAAGAGCACACGU
B27: target 2 MT 5'PFS CAA 3'PFS UCC (mixed)
RNA 1: CACCCGUGCAAAAUUGCAGGGGUCUAAAACCUUCUCCAAAUUGUUUCAUCCU
RNA 2: GGGAAUGGAUCCACAUCUACGAAUUCCAAAGGAUGAAACAAUUUGGAGAAGUCCAGAUCGGAAGAGCACACGU

For the series, the target named is T1, EsCas13d, nuclease-dead (Eubacterium siraeum, UniProt B0MS50, R295A;H300A;R849A;H854A).
T1 sequence: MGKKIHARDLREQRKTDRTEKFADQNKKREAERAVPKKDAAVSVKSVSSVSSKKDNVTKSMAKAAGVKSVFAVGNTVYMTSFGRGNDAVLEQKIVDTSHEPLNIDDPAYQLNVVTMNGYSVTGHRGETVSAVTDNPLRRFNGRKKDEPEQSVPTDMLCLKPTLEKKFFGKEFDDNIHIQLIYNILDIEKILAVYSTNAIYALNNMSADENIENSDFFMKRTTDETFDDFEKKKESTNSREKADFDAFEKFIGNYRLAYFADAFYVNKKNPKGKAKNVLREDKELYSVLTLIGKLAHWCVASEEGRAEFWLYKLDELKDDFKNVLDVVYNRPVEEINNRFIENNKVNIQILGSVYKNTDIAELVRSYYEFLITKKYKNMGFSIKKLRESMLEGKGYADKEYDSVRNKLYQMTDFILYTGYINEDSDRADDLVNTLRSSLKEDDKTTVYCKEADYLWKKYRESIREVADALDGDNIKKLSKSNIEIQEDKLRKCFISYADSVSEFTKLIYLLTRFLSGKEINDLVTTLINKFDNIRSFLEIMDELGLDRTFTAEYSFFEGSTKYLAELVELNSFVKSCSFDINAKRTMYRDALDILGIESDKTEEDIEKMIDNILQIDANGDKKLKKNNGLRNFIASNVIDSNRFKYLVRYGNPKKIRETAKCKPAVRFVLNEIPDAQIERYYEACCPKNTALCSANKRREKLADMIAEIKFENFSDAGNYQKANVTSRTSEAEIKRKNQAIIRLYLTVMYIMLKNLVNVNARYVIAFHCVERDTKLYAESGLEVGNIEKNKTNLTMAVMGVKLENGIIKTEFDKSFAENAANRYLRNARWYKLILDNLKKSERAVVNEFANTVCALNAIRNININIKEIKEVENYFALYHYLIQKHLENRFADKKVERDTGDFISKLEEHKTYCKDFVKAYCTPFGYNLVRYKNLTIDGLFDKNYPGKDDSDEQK
Put plainly: crRNA (strand 1, pre-loaded); Mg2+; 40 mM Tris-HCl pH 7.5, 150 mM NaCl, 6 mM MgCl2, 1 mM DTT, 0.1% Tween-20, 0.2 mg/ml BSA; 25 C; 10 min per concentration, then washed. The conditions noted are these: tags: His6-TwinStrep-SUMO cleaved; N-terminal SNAP kept (SNAP-Surface 488); label: 3' end held by stalled T7 RNA polymerase.
The molecule B1 showed a Kd of 91 ± 15 nM. Under B2 stands 22.9 ± 1.2 nM. On to B3, for which the Kd was determined as 6 ± 0.4 nM. Consider B4, for which the Kd turned out to be 2.57 ± 0.22 nM.

Molecule B5 came in with a Kd of 15.1 ± 1.4 nM. This Kd is about 5.9-fold higher than that of the molecule before. Then B6, with 17.4 ± 2.6 nM; and B7, with 5.4 ± 0.8 nM.

As for B8, the affinity, expressed as Kd, was 15.6 ± 1.4 nM. Then B9, with 12.3 ± 1.2 nM; and B10, with 7 ± 2.4 nM; and B11, with 5.6 ± 1.2 nM. As for B12, the dissociation constant (Kd) turned out to be 6.8 ± 1.6 nM. Then B13, with 22.3 ± 2.6 nM.

As to B14, the Kd was 18.8 ± 2.3 nM. B15 registered a Kd of 15.2 ± 1.8 nM. Then B16, with 15.4 ± 2.1 nM; and B17, with 7.4 ± 2.6 nM. Then B18, with 5.2 ± 1.2 nM.

Regarding B19, the Kd was 2.36 ± 0.26 nM. Turning to B20, the Kd came out at 6.1 ± 1.6 nM. Under B21 stands 27 ± 5 nM; under B22, 1.9 ± 0.4 nM; under B23, 30 ± 10 nM. Under B24 stands 5.7 ± 1.3 nM; under B25, 9.5 ± 1.5 nM. Then B26, with 5 ± 0.6 nM.

For B27, the Kd came out at 7.3 ± 0.6 nM. This Kd and that of the molecule before are within 1.5-fold of each other.

The record behind these values is PMC10786891, “Massively parallel profiling of RNA-targeting CRISPR-Cas13d”.
